# In US7704951B2, “Method for ameliorating dyskinesia” (Juridical Foundation the Chemo-Sero-Therapeutic Research …, priority 2001, dated 2010):
# Entries after “also recorded” stand apart in the source; their conditions may differ. Where no end group is shown, it is not given here. [ ]: non-standard residue; d: D form. Sec = N[C@@H](C[SeH])C(=O)O
# B1: selenoprotein P (protein, UniProt P49908 20-381, looked up)
# Selenoprotein P: ESQDQSSLCKQPPAWSIRDQDPMLNSNGSVTVVALLQASUYLCILQASKLEDLRVKLKKEGYSNISYIVVNHQGISSRLKYTHLKNKVSEHIPVYQQEENQTDVWTLLNGSKDDFLIYDRCGRLVYHLGLPFSFLTFPYVEEAIKIAYCEKKCGNCSLTTLKDEDFCKRVSLATVDKTVETPSPHYHHEHHHNHGHQHLGSSELSENQQPGAPNAPTHPAPPGLHHHHKHKGQHRQGHPENRDMPASEDLQDLQKKLCRKRCINQLLCKLPTDSELAPRSUCCHCRHLIFEKTGSAITUQCKENLPSLCSUQGLRAEENITESCQURLPPAAUQISQQLIPTEASASURUKNQAKKUEUPSN
# How the values were obtained:
# [1] = test system: Dami cells; assay: Cytotoxicity-inhibitory (cell death-inhibitory) activity assay using Dami cells; assay type: cell-based; conditions: for cytotoxicity-inhibitory activity: Dami cells, fatty acid-containing assay medium, 4 to 5 days, survival of the cells
# Method: Using Dami cells (described in Greenberg S. M. et al., Blood, vol. 72, p. 1968-1977 (1988)) for use in assay system for cytotoxicity-inhibitory activity, the cells were washed twice with assay medium (50% PBS/SA/0.03% HSA (manufactured by SIGMA) or SA/0.05% BSA free from fatty acid (WAKO)/4 μM long-chain polyvalent fatty acid (e.g. arachidonic acid, linoleic acid or linolenic acid)) and suspended in the same medium at 3×10^4 cells/ml. The cell suspension was added to a 96-well plate in each 200 μl for wells for sample addition or in each 100 μl for wells for serial dilution. To the wells for sample addition was added each 2 μl assay sample containing either selenoprotein P fragment prepared in Preparation 1, selenocystine, selenomethionine, Ebselen, or sodium selenite at the same concentration. After stirring, a serial dilution was made with the wells containing 100 μl cell suspension. The plate was incubated at 37° C. in CO2 incubator for 4 to 5 days followed by assessment of survival of the cells.
# [2] = cited from earlier work
# [3] = test system: EAE mice (SJL/JOrIICrj); assay: Experimental allergic encephalomyelitis (EAE) in mice, degree of paralysis; assay type: in vivo, mouse; conditions: 0.5 mg/head daily i.p. Day 8 to Day 13
# Method: For investigating the effect of selenoprotein P on dyskinesia induced by immunopathy based on a degree of paralysis, an experiment was performed wherein selenoprotein P was administered to EAE mice. Female SJL/JOrIICrj of 14 weeks old (Charles River Japan, Inc.) was used as a test animal. Myelin proteolipid protein (PLP) synthetic peptide 139-151 (amino acid sequence: His Ser Leu Gly Lys Trp Leu Gly His Pro Asp Lys Phe (SEQ ID NO: 6); […]) as an immunogen was intradermally administered to the mice together with Freund complete adjuvant H37Ra ([…]) and pertussis toxin (manufactured by List Biological Laboratory; 200 ng/mouse) at two portions at the neck of tail.
# Thirteen mice each in two groups received daily 0.5 mg/head of selenoprotein P via intraperitoneal administration from the day (Day 8) previous to onset of the disease till Day 13. A control group received saline via intraperitoneal administration.
# [4] = test system: gerbil mice; assay: Cerebral ischemia/reperfusion injury model (blocking both carotid arteries), degree of paralysis; assay type: in vivo; conditions: 1 mg/animal i.v., vs control
# Method: Effect of selenoprotein P on dyskinesia induced by cerebral ischemia/reperfusion injury was assessed with a degree of paralysis using gerbil mice of 12 weeks old. […] […] A degree of paralysis was assessed after 6 and 24 hours.
# [5] = test system: hNT cells; assay: Survival and protrusion formation in cultured human neurocytes; assay type: cell-based
# Method: NT2 (Ntera2/D1) (Pleasure, S. J. and Lee, V. M., 1993, J. Neurosci. Res. 35: 585-602) is a progenitor neurocyte derived from human teratocarcinoma and can be differentiated with retinoic acid into hNT neurocytes having the properties of the nerve in the central nervous system (Trojanowski, J. Q. et al., 1993 Exp. Neurol. 122: 283-294). Effect of selenoprotein P on protrusion formation in the hNT cells was investigated.
# Both NT2 and hNT cells can be cultured in CO2 incubator at 37° C. The hNT cells were prepared as follows: NT2 cells, being capable of passage culture in 10% FCS/D-MEM/F-12 medium, were first plated at 2.5×10^5 cells/ml. After 24 hours, the culture medium was replaced with D-MEM/F-12 containing 10 μM all-trans retinoic acid to initiate induction. The culture was subsequently continued for six weeks while replacing with the same medium every three days to differentiate NT2 cells into hNT cells. All the differentiated cells were recovered and expanded by 3-folds by passage culture with 10% FCS/D-MEM/F-12 medium. After 48 hours, the cells were plated at 3 to 4×10^6 cells/ml. After 48-hour culture, the culture medium was replaced with 5% FCS/D-MEM/F-12 plus mitotic inhibitor (10 μM Fluorodeoxyuridine, Uridine, 1 μM cytosine arabinoside) and culture was continued for ten days while replacing with the same medium every three days. Subsequently, the culture was treated with trypsin for a short time period and then lightly tapped to release the hNT cells which were recovered. The recovered cells were suspended in a mixed medium of an equal amount of NT2 culture supernatant (10% FCS/D-MEM/F-12 medium) and a fresh 10% FCS/D-MEM/F-12 medium. The suspension was plated on Laminin coating plate to maintain the cells. The hNT cells thus obtained were used in the following experiment.
# The hNT cells were recovered by trypsin treatment, washed with a basal medium of RPMI 1640/D-MEM/F-12 (1:2:2), suspended in the same basal medium and cultured in 96-well plate at 3000 cells/well. On Day 5 to Day 7, the cells died completely.
# [6] = Toxicity of selenium compounds (cell culture); conditions: in spite of 9 to 10 selenocysteines
# Text: Selenium per se, as involved in the present invention, is one of essential trace elements and it is known that deficiency thereof induces a serious deficiency disease accompanied by, for instance, cardiomyopathy. […] Acute toxic symptoms of selenium include, for example, pale face, neurological symptoms, dermatitis, and gastrointestinal disorders.
molecule,measurement,setting,value
"KRCINQLLCKLPTDSELAPRS (cysteine pairing not given here) [SEQ ID NO: 5, selenoprotein P-derived peptide with no selenocysteine, reference compound]",cytotoxicity-inhibitory activity,[1],exhibit no cytotoxicity-inhibitory activity
"Lys Arg Cys Ile Asn Gln Leu Leu Cys Lys Leu Pro Thr Asp Ser Glu Leu Ala Pro Arg Ser Xaa Cys Cys His Cys Arg His Leu Ile Phe Glu Lys (KRCINQLLCKLPTDSELAPRS[Sec]CCHCRHLIFEK; cysteine pairing not given here; listed as Homo sapiens) [SEQ ID NO: 4, peptide purified from selenoprotein P fragments under reduced condition; Xaa = selenocysteine]",cytotoxicity-inhibitory activity,[1],exhibit cytotoxicity-inhibitory activity
N[C@@H](C[Se][Se]C[C@H](N)C(=O)O)C(=O)O [selenocystine],toxicity when added alone to cell culture,[2],fairly strong toxicity
B1,onset of the disease,[3],onset of the disease was inhibited
same,"severity of the disease (paralysis score, Table 2)",[3],severity of the disease was lowered
same,"degree of paralysis (score, Table 1)","[4]; 30 minutes ischemia model, after 6 and 24 hours",apparently exhibited better conditions
same,"degree of paralysis (score, Table 1)","[4]; 45 minutes ischemia model, after 6 hours",no significant difference
same,"degree of paralysis (score, Table 1)","[4]; 45 minutes ischemia model, after 24 hours",much difference
same,cell death-inhibitory activity per proteins,[1]; full-length protein compared with fragment fraction from Preparation 1,much lower than that of the fragment
same,survival time of hNT cells,"[5]; 100 ng/ml, basal medium",more than two weeks
same,cell death of hNT cells,"[5]; 100 ng/ml, basal medium RPMI 1640/D-MEM/F-12, without addition cells died completely on Day 5 to Day 7",completely inhibited
same,protrusion formation (cellular morphology),"[5]; hNT cells, observed on Day 4, FIG. 3",protrusion formation was observed; also recorded: protrusion was formed
same,toxicity,[6],no strong toxicity
